{"source": "paper PMC12783686", "about": "“β-catenin condensation facilitates clustering of the cadherin/catenin complex and formation of nascent cell-cell junctions” (Nature Communications, 2025)", "target": "T1, mCherry-α-catenin (UniProt P26231 1-906)", "T1 construct": "Monomeric pool from gel filtration; source: E. coli CK600K or BL21-DE3 Star, purified (Glutathione Sepharose, TEV protease cleavage, gel filtration; the monomeric pool was collected); not shown: GST (from the vector pGEX-2T); mCherry, N-terminal, kept", "T1 sequence (looked up)": "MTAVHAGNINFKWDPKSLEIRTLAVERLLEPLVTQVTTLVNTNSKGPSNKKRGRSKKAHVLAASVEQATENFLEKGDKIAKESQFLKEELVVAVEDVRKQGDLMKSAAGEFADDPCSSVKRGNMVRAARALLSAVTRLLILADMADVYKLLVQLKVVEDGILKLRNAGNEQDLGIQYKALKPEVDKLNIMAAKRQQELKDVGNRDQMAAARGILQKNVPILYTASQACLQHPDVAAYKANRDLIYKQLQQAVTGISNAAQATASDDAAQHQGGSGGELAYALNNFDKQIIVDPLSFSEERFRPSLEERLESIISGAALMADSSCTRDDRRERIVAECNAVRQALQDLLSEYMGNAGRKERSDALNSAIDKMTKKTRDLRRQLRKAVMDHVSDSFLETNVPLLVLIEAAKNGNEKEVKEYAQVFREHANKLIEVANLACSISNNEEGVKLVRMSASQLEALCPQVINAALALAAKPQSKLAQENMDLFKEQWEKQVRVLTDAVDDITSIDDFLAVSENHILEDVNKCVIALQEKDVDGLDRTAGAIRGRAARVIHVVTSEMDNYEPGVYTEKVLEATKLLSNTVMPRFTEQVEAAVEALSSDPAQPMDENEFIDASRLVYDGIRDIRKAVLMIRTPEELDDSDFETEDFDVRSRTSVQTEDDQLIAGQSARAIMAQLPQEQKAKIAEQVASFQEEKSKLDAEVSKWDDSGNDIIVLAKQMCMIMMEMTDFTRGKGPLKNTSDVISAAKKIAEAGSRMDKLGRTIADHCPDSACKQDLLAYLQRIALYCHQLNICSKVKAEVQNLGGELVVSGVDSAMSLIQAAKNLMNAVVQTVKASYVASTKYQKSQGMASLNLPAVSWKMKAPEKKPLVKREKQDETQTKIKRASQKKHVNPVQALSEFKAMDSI", "assay": "droplet co-partition assay (confocal microscopy); purified fluorescent proteins mixed at equimolar 1 μM with mEGFP-β-catenin (Wt or IDRs*) in droplet formation buffer (50 mM Tris-HCl pH 7.5, 125 mM NaCl, 10% glycerol, 1 mM DTT); droplets induced with 10% PEG-8000; fluorescence inside β-catenin droplets", "conditions": "both partners purified"}
{"binder": "mEGFP-β-catenin^Wt (natural protein, UniProt P35222 1-781, looked up, also called mEGFP-β-cat^Wt; source: E. coli CK600K or BL21-DE3 Star, purified (Glutathione Sepharose, TEV protease cleavage, gel filtration); not shown: GST (from the vector pGEX-2T); mEGFP, N-terminal, kept) MATQADLMELDMAMEPDRKAAVSHWQQQSYLDSGIHSGATTTAPSLSGKGNPEEEDVDTSQVLYEWEQGFSQSFTQEQVADIDGQYAMTRAQRVRAAMFPETLDEGMQIPSTQFDAAHPTNVQRLAEPSQMLKHAVVNLINYQDDAELATRAIPELTKLLNDEDQVVVNKAAVMVHQLSKKEASRHAIMRSPQMVSAIVRTMQNTNDVETARCTAGTLHNLSHHREGLLAIFKSGGIPALVKMLGSPVDSVLFYAITTLHNLLLHQEGAKMAVRLAGGLQKMVALLNKTNVKFLAITTDCLQILAYGNQESKLIILASGGPQALVNIMRTYTYEKLLWTTSRVLKVLSVCSSNKPAIVEAGGMQALGLHLTDPSQRLVQNCLWTLRNLSDAATKQEGMEGLLGTLVQLLGSDDINVVTCAAGILSNLTCNNYKNKMMVCQVGGIEALVRTVLRAGDREDITEPAICALRHLTSRHQEAEMAQNAVRLHYGLPVVVKLLHPPSHWPLIKATVGLIRNLALCPANHAPLREQGAIPRLVQLLVRAHQDTQRRTSMGGTQQQFVEGVRMEEIVEGCTGALHILARDVHNRIVIRGLNTIPLFVQLLYSPIENIQRVAAGVLCELAQDKEAAEAIEAEGATAPLTELLHSRNEGVATYAAAVLFRMSEDKPQDYKKRLSVELTSSLFRTEPMAWNETADLGLDIGAQGEPLGYRQDDPSYRSFHSGGYGQDALGMDPMMEHEMGGHHPGADYPVDGLPDLGHAQDLMDGLPPGDSNQLAWFDTDL", "values": [{"measurement": "binding result", "result": "binds"}]}
